Earlier results as cited in article PMC8588233.
Where two headings read alike, the source gives them in different places. One block for each substance: values may come before it.

What was measured:
HER2 (Homo sapiens) [1] = biological target: HER2 (Homo sapiens) (UniProt P04626)
HER2 (Homo sapiens) [2] = biological target: HER2 (Homo sapiens) (UniProt P04626); remark: listed apart in the source
HER2 (Homo sapiens) [3] = biological target: HER2 (Homo sapiens) (UniProt P04626); remark: listed apart in the source

Kd (HER2 (Homo sapiens) [1]): 395 nM
Substance: AHNP

Kd (HER2 (Homo sapiens) [2]): 300 nM
Substance: AHNP (111In-DTPA-peptide-PEG)

Kd (HER2 (Homo sapiens) [3]): 295 nM
Substance: KCCYSL peptide
